B1: A8R, A22K(N(eps)tetradecanedioyl-4xgGlu), B3E, B26E, B27E, B28R, desB29, desB30 human insulin (ligand)
chain 1: GIVEQCCRSICSLYQLENYCNK
chain 2: FVEQHLCGSHLVEALYLVCGERGFFEER
modifications: not fully specified; Lys A22 acylated on N(eps) with tetradecanedioyl-4xgGlu
notes: Two-chain acylated insulin analogue; also called Ex. No. 19
B2: A8R, A22K(N(eps)tetradecanedioyl-4xgGlu), B3E, B26E, B27P, B28R, desB29, desB30 human insulin (ligand)
chain 1: GIVEQCCRSICSLYQLENYCNK
chain 2: FVEQHLCGSHLVEALYLVCGERGFFEPR
modifications: not fully specified; Lys A22 acylated on N(eps) with tetradecanedioyl-4xgGlu
notes: also called Ex. No. 16
B3: A8R, A22K(N(eps)tetradecanedioyl-4xgGlu), B3E, B27E, B28R, desB29, desB30 human insulin (ligand)
chain 1: GIVEQCCRSICSLYQLENYCNK
chain 2: FVEQHLCGSHLVEALYLVCGERGFFYER
modifications: not fully specified; Lys A22 acylated on N(eps) with tetradecanedioyl-4xgGlu
notes: Two-chain acylated insulin analogue; also called Ex. No. 17
B4: A8R, A22K(N(eps)tetradecanedioyl-4xgGlu), B3E, B26E, B28E, B29R, desB30 human insulin (ligand)
chain 1: GIVEQCCRSICSLYQLENYCNK
chain 2: FVEQHLCGSHLVEALYLVCGERGFFETER
modifications: not fully specified; Lys A22 acylated on N(eps) with tetradecanedioyl-4xgGlu
notes: Two-chain acylated insulin analogue; also called Ex. No. 23
B5: A14E, A22K(N(eps)tetradecanedioyl-4xgGlu), B3Q, B28D, B29R, desB30 human insulin (ligand)
chain 1: GIVEQCCTSICSLEQLENYCNK
chain 2: FVQQHLCGSHLVEALYLVCGERGFFYTDR
modifications: not fully specified; Lys A22 acylated on N(eps) with tetradecanedioyl-4xgGlu
notes: also called Ex. No. 8
B6: A14E, A22K(N(eps)tetradecanedioyl-gGlu-2xOEG), B3E, B27E, B28E, B29R, desB30 human insulin (ligand)
chain 1: GIVEQCCTSICSLEQLENYCNK
chain 2: FVEQHLCGSHLVEALYLVCGERGFFYEER
modifications: not fully specified; Lys A22 acylated on N(eps) with tetradecanedioyl-gGlu-2xOEG
notes: Two-chain acylated insulin analogue; also called Ex. No. 2
B7: A8R, A22K(N(eps)tetradecanedioyl-4xgGlu), B3E, B26E, B29R, desB30 human insulin (ligand)
chain 1: GIVEQCCRSICSLYQLENYCNK
chain 2: FVEQHLCGSHLVEALYLVCGERGFFETPR
modifications: not fully specified; Lys A22 acylated on N(eps) with tetradecanedioyl-4xgGlu
notes: Two-chain acylated insulin analogue; also called Ex. No. 15
B8: A14E, A22K(N(eps)hexadecanedioyl-4xgGlu), B3E, B27E, B28E, B29R, desB30 human insulin (ligand)
chain 1: GIVEQCCTSICSLEQLENYCNK
chain 2: FVEQHLCGSHLVEALYLVCGERGFFYEER
modifications: not fully specified; Lys A22 acylated on N(eps) with hexadecanedioyl-4xgGlu
notes: Two-chain acylated insulin analogue; also called Ex. No. 27
B9: A14E, A22K(N(eps)tetradecanedioyl-4xgGlu), B3E, B27E, B28E, B29R, desB30 human insulin (ligand)
chain 1: GIVEQCCTSICSLEQLENYCNK
chain 2: FVEQHLCGSHLVEALYLVCGERGFFYEER
modifications: not fully specified; Lys A22 acylated on N(eps) with tetradecanedioyl-4xgGlu
notes: Two-chain acylated insulin analogue; also called Ex. No. 4
B10: A14E, A22K(N(eps)tetradecanedioyl-4xgGlu), B3Q, B27E, B28E, B29R, desB30 human insulin (ligand)
chain 1: GIVEQCCTSICSLEQLENYCNK
chain 2: FVQQHLCGSHLVEALYLVCGERGFFYEER
modifications: not fully specified; Lys A22 acylated on N(eps) with tetradecanedioyl-4xgGlu
notes: also called Ex. No. 9
B11: A8R, A22K(N(eps)tetradecanedioyl-4xgGlu), B3E, B27E, B28E, B29R, desB30 human insulin (ligand)
chain 1: GIVEQCCRSICSLYQLENYCNK
chain 2: FVEQHLCGSHLVEALYLVCGERGFFYEER
modifications: not fully specified; Lys A22 acylated on N(eps) with tetradecanedioyl-4xgGlu
notes: Two-chain acylated insulin analogue; also called Ex. No. 24
B12: A14E, A22K(N(eps)hexadecanedioyl-gGlu-2xOEG), B3E, B27E, B28E, B29R, desB30 human insulin (ligand)
chain 1: GIVEQCCTSICSLEQLENYCNK
chain 2: FVEQHLCGSHLVEALYLVCGERGFFYEER
modifications: not fully specified; Lys A22 acylated on N(eps) with hexadecanedioyl-gGlu-2xOEG
notes: Two-chain acylated insulin analogue; also called Ex. No. 26

What was measured:
[1] = molecular target: insulin receptor on primary rat adipocytes (rat) (UniProt P15127); test: cell-based or functional assay
[2] = molecular target: membrane-associated human IR-A (plasma membranes of BHK cells stably transfected with the human IR-A insert) (human) (UniProt P06213); test: SPA competition vs [125I-A14Y]-human insulin, membrane hIR-A, 0.1% HSA
[3] = molecular target: membrane-associated human IR-B (plasma membranes of BHK cells stably transfected with the human IR-B insert) (human) (UniProt P06213); test: SPA competition vs [125I-A14Y]-human insulin, membrane hIR-B, 0.1% HSA
[4] = molecular target: T1, solubilised human IR-A (semipurified by wheat germ agglutinin chromatography from baby hamster kidney (BHK) … (human, UniProt P06213-2 28-1370)); test: SPA competition vs [125I-A14Y]-human insulin, solubilised hIR-A, 0% HSA
T1 construct: mature; Detergent-solubilised holoreceptor captured by anti-IR mouse antibody 83-7 on SPA beads; the precursor is processed into alpha and beta chains; also called hIRA; human insulin receptor (IR), A isoform

[5] = molecular target: T2, membrane-associated human IGF-1R (plasma membranes of BHK cells stably transfected with the human IGF-IR … (human, UniProt P08069 31-1367)); test: SPA competition vs [125I-Tyr31]-human IGF-1, membrane hIGF-1R, 0.1% HSA
T2 construct: whole, on cells; Receptor in purified plasma membranes, not on intact cells; also called hIGF1R; insulin-like growth factor 1 receptor
Description: The relative binding affinity for either of the membrane-associated human IR-A, IR-B or IGF-1R is determined by competition binding in a SPA setup. IR assays are performed in duplicate in 96-well OptiPlates (Perkin-Elmer Life Sciences). […] Assays are terminated by centrifugation of the plate at 2000 rpm for 2 minutes and bound radioactivity quantified by counting on a TopCount NXT (Perkin-Elmer Life Sciences).
IGF-1R assays are conducted essentially as for the IR binding assays except that membrane-associated IGF-1R and 50 pM [¹²5-Tyr31]-human IGF-1 were employed.

[6] = molecular target: T1, solubilised human IR-A (semipurified by …); test: SPA competition vs [125I-A14Y]-human insulin, solubilised hIR-A, 1.5% HSA

T1 sequence (P06213 other isoform, or with tags, fused parts or gaps limits assumed): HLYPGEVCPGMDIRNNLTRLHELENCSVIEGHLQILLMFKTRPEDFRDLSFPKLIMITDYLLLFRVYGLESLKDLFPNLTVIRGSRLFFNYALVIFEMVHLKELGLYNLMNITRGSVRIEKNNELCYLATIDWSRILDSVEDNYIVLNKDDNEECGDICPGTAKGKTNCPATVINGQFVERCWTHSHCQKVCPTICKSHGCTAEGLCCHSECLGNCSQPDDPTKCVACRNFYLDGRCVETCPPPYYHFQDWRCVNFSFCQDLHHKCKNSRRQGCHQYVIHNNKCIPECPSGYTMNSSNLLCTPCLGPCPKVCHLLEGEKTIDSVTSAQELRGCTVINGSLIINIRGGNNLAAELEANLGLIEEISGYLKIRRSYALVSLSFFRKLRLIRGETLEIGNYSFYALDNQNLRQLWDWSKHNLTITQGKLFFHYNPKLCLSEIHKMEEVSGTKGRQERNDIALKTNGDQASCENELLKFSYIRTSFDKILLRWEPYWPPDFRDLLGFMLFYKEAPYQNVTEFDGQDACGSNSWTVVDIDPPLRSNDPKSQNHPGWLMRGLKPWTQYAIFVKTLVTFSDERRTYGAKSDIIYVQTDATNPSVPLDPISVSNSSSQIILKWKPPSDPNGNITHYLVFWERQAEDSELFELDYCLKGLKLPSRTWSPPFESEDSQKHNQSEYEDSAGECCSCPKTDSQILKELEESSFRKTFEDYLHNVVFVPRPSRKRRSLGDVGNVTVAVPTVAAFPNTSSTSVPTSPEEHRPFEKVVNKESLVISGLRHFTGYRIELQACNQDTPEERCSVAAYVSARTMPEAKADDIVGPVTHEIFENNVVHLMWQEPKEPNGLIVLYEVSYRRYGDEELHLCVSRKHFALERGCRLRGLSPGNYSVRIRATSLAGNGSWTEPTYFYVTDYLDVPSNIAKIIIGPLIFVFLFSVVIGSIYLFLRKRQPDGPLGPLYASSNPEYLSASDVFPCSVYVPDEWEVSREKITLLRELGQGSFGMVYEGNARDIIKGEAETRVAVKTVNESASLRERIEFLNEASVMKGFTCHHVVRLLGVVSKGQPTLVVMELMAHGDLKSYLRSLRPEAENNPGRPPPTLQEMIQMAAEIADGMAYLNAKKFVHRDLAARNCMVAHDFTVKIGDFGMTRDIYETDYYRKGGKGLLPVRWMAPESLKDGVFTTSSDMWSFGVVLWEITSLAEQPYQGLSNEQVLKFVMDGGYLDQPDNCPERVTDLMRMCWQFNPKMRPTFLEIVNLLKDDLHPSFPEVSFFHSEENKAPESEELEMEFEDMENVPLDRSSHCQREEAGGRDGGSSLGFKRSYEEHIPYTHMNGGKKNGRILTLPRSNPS
Chain of insulin receptor on primary rat adipocytes (rat) (P15127 27-1383): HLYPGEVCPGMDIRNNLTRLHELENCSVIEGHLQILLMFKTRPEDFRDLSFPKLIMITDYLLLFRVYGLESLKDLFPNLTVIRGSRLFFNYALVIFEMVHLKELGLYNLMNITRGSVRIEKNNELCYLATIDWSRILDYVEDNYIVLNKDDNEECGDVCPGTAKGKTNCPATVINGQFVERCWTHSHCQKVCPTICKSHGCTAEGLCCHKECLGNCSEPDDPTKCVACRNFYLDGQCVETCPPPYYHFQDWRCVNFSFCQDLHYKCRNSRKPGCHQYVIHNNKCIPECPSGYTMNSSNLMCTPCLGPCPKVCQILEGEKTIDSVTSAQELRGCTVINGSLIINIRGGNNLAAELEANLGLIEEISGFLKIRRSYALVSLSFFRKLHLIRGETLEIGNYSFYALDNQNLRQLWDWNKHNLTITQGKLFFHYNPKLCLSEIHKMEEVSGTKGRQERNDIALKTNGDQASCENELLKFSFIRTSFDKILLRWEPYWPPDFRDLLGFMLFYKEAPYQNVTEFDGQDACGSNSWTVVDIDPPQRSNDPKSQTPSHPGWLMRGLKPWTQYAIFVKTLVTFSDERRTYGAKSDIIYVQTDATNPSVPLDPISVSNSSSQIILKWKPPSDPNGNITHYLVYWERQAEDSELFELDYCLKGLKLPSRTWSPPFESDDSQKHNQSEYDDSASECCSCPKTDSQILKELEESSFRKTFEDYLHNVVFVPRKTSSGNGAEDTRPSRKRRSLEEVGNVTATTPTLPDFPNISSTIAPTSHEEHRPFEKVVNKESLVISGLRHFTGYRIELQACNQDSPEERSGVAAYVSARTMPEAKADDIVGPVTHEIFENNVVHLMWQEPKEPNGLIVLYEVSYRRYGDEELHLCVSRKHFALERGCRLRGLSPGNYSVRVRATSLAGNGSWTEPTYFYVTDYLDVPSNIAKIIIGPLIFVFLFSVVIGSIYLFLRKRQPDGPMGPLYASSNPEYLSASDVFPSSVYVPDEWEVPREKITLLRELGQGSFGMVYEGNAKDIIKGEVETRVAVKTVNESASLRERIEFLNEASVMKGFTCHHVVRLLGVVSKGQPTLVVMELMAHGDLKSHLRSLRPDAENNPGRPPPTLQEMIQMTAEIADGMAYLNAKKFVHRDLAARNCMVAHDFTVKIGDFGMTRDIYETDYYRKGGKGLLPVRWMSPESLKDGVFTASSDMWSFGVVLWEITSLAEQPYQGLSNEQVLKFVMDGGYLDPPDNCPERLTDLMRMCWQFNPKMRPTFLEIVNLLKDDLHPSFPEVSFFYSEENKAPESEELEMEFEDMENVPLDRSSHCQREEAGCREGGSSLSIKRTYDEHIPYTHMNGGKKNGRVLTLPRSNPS
Chain of membrane-associated human IR-B (plasma membranes of BHK cells stably transfected with the human IR-B insert) (human) (P06213 28-1382): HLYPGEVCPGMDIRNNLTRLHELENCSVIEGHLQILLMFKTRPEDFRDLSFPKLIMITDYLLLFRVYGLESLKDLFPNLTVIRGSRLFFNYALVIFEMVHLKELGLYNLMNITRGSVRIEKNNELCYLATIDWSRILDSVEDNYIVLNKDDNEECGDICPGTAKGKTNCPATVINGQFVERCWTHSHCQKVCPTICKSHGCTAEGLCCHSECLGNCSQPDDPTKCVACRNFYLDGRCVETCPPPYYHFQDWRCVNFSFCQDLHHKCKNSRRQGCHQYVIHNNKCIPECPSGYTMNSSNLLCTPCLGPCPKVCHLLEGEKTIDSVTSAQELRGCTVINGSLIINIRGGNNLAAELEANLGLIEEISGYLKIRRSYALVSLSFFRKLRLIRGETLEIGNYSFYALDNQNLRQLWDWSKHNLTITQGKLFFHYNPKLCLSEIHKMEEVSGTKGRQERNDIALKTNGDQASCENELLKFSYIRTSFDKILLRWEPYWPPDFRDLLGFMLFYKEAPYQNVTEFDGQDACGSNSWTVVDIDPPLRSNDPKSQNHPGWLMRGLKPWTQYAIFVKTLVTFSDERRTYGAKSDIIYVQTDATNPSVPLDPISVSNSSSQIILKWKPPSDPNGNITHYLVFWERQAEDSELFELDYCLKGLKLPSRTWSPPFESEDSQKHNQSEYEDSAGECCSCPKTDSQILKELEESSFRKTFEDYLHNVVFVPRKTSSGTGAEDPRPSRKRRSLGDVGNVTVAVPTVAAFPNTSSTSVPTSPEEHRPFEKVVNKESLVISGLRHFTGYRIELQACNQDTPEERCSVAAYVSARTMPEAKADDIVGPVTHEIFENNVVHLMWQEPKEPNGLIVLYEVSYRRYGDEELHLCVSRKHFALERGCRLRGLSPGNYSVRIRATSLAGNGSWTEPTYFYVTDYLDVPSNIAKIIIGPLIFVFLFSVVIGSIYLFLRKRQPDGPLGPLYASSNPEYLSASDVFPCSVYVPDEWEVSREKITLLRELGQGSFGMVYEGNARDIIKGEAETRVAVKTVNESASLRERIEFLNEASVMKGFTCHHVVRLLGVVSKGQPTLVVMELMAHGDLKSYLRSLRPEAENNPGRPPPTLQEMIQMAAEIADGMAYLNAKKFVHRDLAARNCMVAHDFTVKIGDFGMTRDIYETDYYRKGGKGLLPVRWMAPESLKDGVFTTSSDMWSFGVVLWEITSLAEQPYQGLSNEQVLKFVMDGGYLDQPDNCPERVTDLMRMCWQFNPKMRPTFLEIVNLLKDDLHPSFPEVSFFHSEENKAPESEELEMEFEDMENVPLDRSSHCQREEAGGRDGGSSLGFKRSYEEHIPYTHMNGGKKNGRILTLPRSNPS

| Binder | Lipogenesis 1% HSA (% rel to HI) [1] | relative binding affinity (% rel to HI) [2] | relative binding affinity (% rel to HI) [3] | relative binding affinity (% rel to HI) [4] | relative binding affinity (% rel to HI) [5] | relative binding affinity (% rel to HI) [6] |
| --- | --- | --- | --- | --- | --- | --- |
| B1 | 80.3 % rel to HI | 88.8 % rel to HI | 155 % rel to HI | 260 % rel to HI | 22.6 % rel to HI | 188 % rel to HI |
| B2 | 130 % rel to HI | 113 % rel to HI | 168 % rel to HI | 317 % rel to HI | 61.8 % rel to HI | 229 % rel to HI |
| B3 | 70.7 % rel to HI | 85.2 % rel to HI | 130 % rel to HI | 243 % rel to HI | 32.9 % rel to HI | 163 % rel to HI |
| B4 | 59 % rel to HI | 78.5 % rel to HI | 143 % rel to HI | 229 % rel to HI | 5.7 % rel to HI | 182 % rel to HI |
| B5 | 17.2 % rel to HI | 34.3 % rel to HI | 59.1 % rel to HI | 95.6 % rel to HI | 42 % rel to HI | 64.9 % rel to HI |
| B6 | 14.2 % rel to HI | 50.1 % rel to HI | 70.2 % rel to HI | 60.4 % rel to HI | 36.6 % rel to HI | 38.9 % rel to HI |
| B7 | 70.9 % rel to HI | 108 % rel to HI | 174 % rel to HI | 294 % rel to HI | 10.8 % rel to HI | 237 % rel to HI |
| B8 | 3.7 % rel to HI | 16.5 % rel to HI | 23.2 % rel to HI | 114 % rel to HI | 14.3 % rel to HI | 5.4 % rel to HI |
| B9 | 15.4 % rel to HI | 36.6 % rel to HI | 56.6 % rel to HI | 47.4 % rel to HI | 28.6 % rel to HI | 44.9 % rel to HI |
| B10 | 30.1 % rel to HI | 36.8 % rel to HI | 68.7 % rel to HI | 83 % rel to HI | 29.5 % rel to HI | 70.2 % rel to HI |
| B11 | 78.6 % rel to HI | 88.1 % rel to HI | 164 % rel to HI | 274 % rel to HI | 24 % rel to HI | 211 % rel to HI |
| B12 | 2.6 % rel to HI | 19.3 % rel to HI | 28.7 % rel to HI | 63.7 % rel to HI | 28.7 % rel to HI | 7.4 % rel to HI |

Source: patent US20180305431A1 (Novo Nordisk, published 2018)
